Legend:
[1] = biological target: NsrR V43A, in vitro translated (Salmonella enterica serovar Typhimurium …, UniProt Q8ZKA3 1-141, V43A); experiment: EMSA; 2 uM; clear shift; details: protein: ivt; tags: N-terminal His (pET28a); chain copies: 2; label: 32P (5' by T4 PNK); blunt
NsrR V43A = NsrR V43A (Salmonella enterica serovar Typhimurium …, UniProt Q8ZKA3 1-141, V43A); experiment: EMSA; no NO; 0.0625-4 uM protein; stronger than WT; details: protein: recombinant; tags: N-terminal His (pET28a); chain copies: 2; label: 32P (5' by T4 PNK); blunt

B1: hmp probe (dsDNA)
DNA 1: AAGATGCATTTGATATACATCATT
DNA 2: AATGATGTATATCAAATGCATCTT
[1]
  binding result: binds
NsrR V43A
  binding result: binds
